In article PMC3171153:

Assays:
Assay in all cases: SPR; BIAcore T100; scFv-His10-CLAMP (150 nM) captured on ePDZ-b1 affinity clamp immobilised on a CM5 chip; purified SHC1 injected at increasing concentrations, 30 ul/min; PBS with 0.05% Tween 20; global fit, 1:1 interaction model
[1] = target: anti-SHC1 scFv 72_1A10, His10-CLAMP-tagged
[2] = target: anti-SHC1 scFv 72_2B01, His10-CLAMP-tagged
[3] = target: six of the eight chain-shuffled derivatives (positive in immunoprecipitation), as measured by SPR

Chain of anti-SHC1 scFv 72_1A10, His10-CLAMP-tagged (heavy, as listed by the source): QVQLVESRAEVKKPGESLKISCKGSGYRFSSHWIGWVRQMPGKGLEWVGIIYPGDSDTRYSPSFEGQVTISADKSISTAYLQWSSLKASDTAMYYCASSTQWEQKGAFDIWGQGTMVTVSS

Kd [1]: 25 nM | fold improvement in affinity over 58 E05 [2]: 59 fold | fold reduction in off-rate against 58 E05 [2]: 3.2 fold | Kd [3]: < 60 nM | koff [3]: < 0.1 s⁻¹
B1: SHC1 SH2 domain (purified SHC1 antigen) (domain or fragment)
chain: WFHGKLSRREAEALLQLNGDFLVRESTTTPGQYVLTGLQSGQPKHLLLVDPEGVVRTKDHRFESVSHLISYHMDNHLPIISAGSELCLQQPV
